Assay results reported in patent publication US20040077031.

How the values were obtained:
MGKVKVGVNGF peptide = target: T1, MGKVKVGVNGF peptide
T1 chain: MGKVKVGVNGF

MGKVKV peptide = target: T2, MGKVKV peptide
T2 chain: MGKVKV

[1] = target: T3, MGNAAAAK (PKC a) octameric peptide
T3 chain: MGNAAAAK

MGK peptide = target: T4, MGK peptide
T4 chain: MGK

MGKV peptide = target: T5, MGKV peptide
T5 chain: MGKV

[2] = target: T6, MGSSKSKP (Src p60) octameric peptide
T6 chain: MGSSKSKP

MGKVKVGVN peptide = target: T7, MGKVKVGVN peptide
T7 chain: MGKVKVGVN

MGKVKVG (GADPH) peptide = target: T8, MGKVKVG (GADPH) peptide
T8 chain: MGKVKVG

[3] = target: T9, MGAQFSKT (MARCKS protein) octameric peptide
T9 chain: MGAQFSKT

MGKVK peptide = target: T10, MGKVK peptide
T10 chain: MGKVK

[4] = target: T11, MGNLKSVA (eNOS) octameric peptide
T11 chain: MGNLKSVA

MGKVKVGVNG peptide = target: T12, MGKVKVGVNG peptide
T12 chain: MGKVKVGVNG

[5] = target: T13, MAS (methionine-alanine-serine) trimeric peptide
T13 chain: MAS

B1: recombinant human methionine aminopeptidase type 2 (MetAP2) with N-terminal histidine tag (protein)
chain: MAGVEEVAASGSHLNGDLDPDDREEGAASTAEEAAKKKRRKKKKSKGPSAAGEQEPDKESGASVDEVARQLERSALEDKERDEDDEDGDGDGDGATGKKKKKKKKKRGPKVQTDPPSVPICDLYPNGVFPKGQECEYPPTQDGRTAAWRTTSEEKKALDQASEEIWNDFREAAEAHRQVRKYVMSWIKPGMTMIEICEKLEDCSRKLIKENGLNAGLAFPTGCSLNNCAAHYTPNAGDTTVLQYDDICKIDFGTHISGRIIDCAFTVTFNPKYDTLLKAVKDATNTGIKCAGIDVRLCDVGEAIQEVMESYEVEIDGKTYQVKPIRNLNGHSIGQYRIHAGKTVPIVKGGEATRMEEGEVYAIETFGSTGKGVVHDDMECSHYMKNFDVGHVPIRLPRTKHLLNVINENFGTLAFCRRWLDRLGESKYLMALKNLCDLGIVDPYPPLCDIKGSYTAQFEHTILLRPTCKEVVSRGDDY
MGKVKVGVNGF peptide
  Km: 131 µM
  kcat: 9.43 s⁻¹
  kcat/Km: 4.3
MGKVKV peptide
  Km: 149 µM
  kcat: 8.53 s⁻¹
  kcat/Km: 3.4
[1]
  Km: 260 µM
  kcat: 3.78 s⁻¹
  kcat/Km: 0.9
MGK peptide
  Km: 758 µM
  kcat: 3.32 s⁻¹
  kcat/Km: 0.3
MGKV peptide
  Km: 624 µM
  kcat: 6.7 s⁻¹
  kcat/Km: 0.6
[2]
  Km: 233 µM
  kcat: 3.94 s⁻¹
  kcat/Km: 1
MGKVKVGVN peptide
  Km: 205 µM
  kcat: 10.2 s⁻¹
  kcat/Km: 3
MGKVKVG (GADPH) peptide
  Km: 215 µM
  kcat: 9.56 s⁻¹
  kcat/Km: 2.7
[3]
  Km: 224 µM
  baseline activity (turnover, no added metal): 0.12 µM/min turnover of MGAQFSKT at 30 nM MetAP2
  kcat: 4.87 s⁻¹
  kcat/Km: 1.3
MGKVK peptide
  Km: 188 µM
  kcat: 10.4 s⁻¹
  kcat/Km: 3.3
[4]
  Km: 208 µM
  kcat: 4.87 s⁻¹
  kcat/Km: 1.4
MGKVKVGVNG peptide
  Km: 164 µM
  kcat: 10.2 s⁻¹
  kcat/Km: 3.7
[5]
  Km: 212 µM
  baseline activity (turnover, no added metal): 0.19 µM/min turnover of MAS at 60 nM MetAP2
  enzymatic cleavage of peptide substrate: showed enzymatic activity in cleaving a tripeptide MAS substrate
  kcat: 2.54 s⁻¹
  kcat/Km: 0.72
